Measurements: the nanobody polyreactivity screen of Harvey et al. (2022)

Experiment: yeast display, Sf9 membrane polyspecificity reagent, FACS + sequencing; frameworks hold sequencing errors
Outline: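 Galactose induction of a Saccharomyces cerevisiae BJ5465 synthetic nanobody display library ran 36–48 hours. The cells were then stained for 1 hour at 4 °C with 10% biotinylated, detergent-solubilized Sf9 membrane reagent, pulled down on streptavidin microbeads and FACS-sorted into low and high (top ~1%) gates on expression and reagent-binding fluorescence. Labels for polyreactivity follow the gate of origin.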

Q: For “QVQLVESGGGLVQAGGRRRLSCAASGSTLRDYVMGWYRQAPGKERELVAAITGRVDDTYYADSVKGRFTISRDNAKNTVYLQMNSLKPEDTAGYYCAADYSVTLRIGGFYWFYAFDYWGQGSQVTVSS”, which “polyreactivity (PSR sort gate)” value is on record?
A: low polyreactivity

Q: With “QVQLVESGGGLVQAGGRSCAASGSTFRPYAMGWYRQAPGKEREFVAAISWRGGRTYYADSVKGRFTISRDNAKNTVYLQMNSLKPEDTAVYYCAVDPSIYRLSAYYYDYWGQGTQVTVSS” as the sequence, how does the “polyreactivity (PSR sort gate)” value read?
A: low polyreactivity

Q: Which “polyreactivity (PSR sort gate)” value does the source give for “QVQLVESGGGLVQAGGSFRLSCAASGRIFSPNAMGWYRQAPGKEREFVAAITWRAGTTYYADSVKGRFTISRDNAKNTVYLLMNSLKPEDTAVYYCAAGRRLGYGYWGQGTQVTVSS” here?
A: high polyreactivity

Q: With “QVQLVESGGGLVQAGGSFRLSCAASGSIFDGYAMGWYRQAPGKERELVAAISSGGDSTYYADSVKGRFTISRDNAKNTVYLQMNSLKPEDTAVYYCNADSLVGHSYDYWGQGTQVTVSS” as the sequence, how does the “polyreactivity (PSR sort gate)” value read?
A: low polyreactivity

Q: Which “polyreactivity (PSR sort gate)” value does the source give for “QVQLVESGGGLVQAGGSFRLSCAASGSIFVVYAMGWYRQAPGKERELVAAITSGGSTYYADSVKGRFTISRDNAKNTVYLQMNSLKPEDTAVYYCNAKRTGPWFLHVPVYYWGQGTQVTVSS” here?
A: low polyreactivity

Q: Which “polyreactivity (PSR sort gate)” value does the source give for “QVQLVESGGGLVQAGGSHRISCAASGSTFPGYPMGWYRQAPGKERELVAAGGSTYYADSVKGRFTISRDNAKNTVYLQINSLKPEDTAVYYCAATWGSVQKGTYYYWGQGTQVTVSS” here?
A: low polyreactivity

Q: With “QVQLVESGGGLVQAGGSHRLSCAASGFIFYVYAMGWYRQAPGKERELVATINGRRSRTYYADSVKGRFTISRDNAKNTVYLQMNSLKPEDTAVYYCAAVAWVLRYGRGDYWGQGTQVTVSL” as the sequence, how does the “polyreactivity (PSR sort gate)” value read?
A: high polyreactivity

Q: With “QVQLVESGGGLVQAGGSHRLSCAASGFTFDFYAMGWYRQAPGKERELVAAISKNDGTTYYADSVKGRFTISRDNAKNTVYLLLNRLKPEDSAVYYCAAESGYPVYTYVSSGDYWGQGTQVTGSS” as the sequence, how does the “polyreactivity (PSR sort gate)” value read?
A: low polyreactivity

Q: With “QVQLVESGGGLVQAGGSHRLSCAASGFTFGYYVMGWYRQAPGKERELVAAISKRGSSTYYADCVKGRFTISRDNANTTVYLQMNSLKPVDTAVYYCAADGVYSHKDGHWGQGTQVTVSS” as the sequence, how does the “polyreactivity (PSR sort gate)” value read?
A: high polyreactivity

Q: For “QVQLVESGGGLVQAGGSHRLSCAASGFTFRRNAMGWYRQAPGKERELVAAISWSGGSTYYADSVKGRFTISRDNAKNTVYLQMNSLKPEDTAVYYCAAYDYRHLEDKYDYWGQGTQVTVSS”, which “polyreactivity (PSR sort gate)” value is on record?
A: high polyreactivity

Q: With “QVQLVESGGGLVQAGGSHRLSCAASGFTFSAYTMGWYRQAPGKERELVAAISWRGTSTYYADSVKGRFTISRDNAKNTVYLQMNSLKPEDTAVYYCAVRWPSARIPVKLDYWGQGTQVNVSS” as the sequence, how does the “polyreactivity (PSR sort gate)” value read?
A: high polyreactivity

Q: Which “polyreactivity (PSR sort gate)” value does the source give for “QVQLVESGGGLVQAGGSHRLSCAASGFTLRYYSMGRNRPATGKERELVAPISFRGVRTYYADSVKGRFTISRDNAKNTVYLQMNSLKPEDTAVYYCAAASRRGVLYPSLPVLPDDYWGQGTQVTVSS” here?
A: high polyreactivity

Q: For “QVQLVESGGGLVQAGGSHRLSCAASGGILETNAMGWYRQAPGKERELVAAIDFSAGSTYYADSVKGRFTISRDNAKNTVYLQMNSLKPEDTAVYYCAAESQGPKDDYLWGWHIYYYWGQGSQVTVSS”, which “polyreactivity (PSR sort gate)” value is on record?
A: low polyreactivity

Q: For “QVQLVESGGGLVQAGGSHRLSCAASGGTFNSNAMGWYRQAPGKERELVASITWRGGTYYADSVKGRFTISRDNAKNTVYLQMNSLKPEDTAVYYCAARGTIPGIHWIYYYWGQGTQVTVSS”, which “polyreactivity (PSR sort gate)” value is on record?
A: high polyreactivity

Q: For “QVQLVESGGGLVQAGGSHRLSCAASGIIFWYNAMGWYRQAPGKERELVAAISRGGGNTYADSVKGRFTISRDNAKNTVYLQMKSLKPEDTAVYYCAAKRSGYRFNTRWFRLPKYDYWGQGTQVTVSS”, which “polyreactivity (PSR sort gate)” value is on record?
A: low polyreactivity

Q: With “QVQLVESGGGLVQAGGSHRLSCAASGIIFYDNTMGWYRQAPGKERELVASITWRGGSTYYADSVKGRFTISRDNAKNTFYLQMNSLKPEDTAVYYCNADSSDDYDYWGQGTQVTVSS” as the sequence, how does the “polyreactivity (PSR sort gate)” value read?
A: low polyreactivity
